In article PMC3472098:

Molecular target: T1, Rrp44exo- (exoribonuclease-dead) (budding yeast, UniProt Q08162 1-1001, D551N)
T1 sequence: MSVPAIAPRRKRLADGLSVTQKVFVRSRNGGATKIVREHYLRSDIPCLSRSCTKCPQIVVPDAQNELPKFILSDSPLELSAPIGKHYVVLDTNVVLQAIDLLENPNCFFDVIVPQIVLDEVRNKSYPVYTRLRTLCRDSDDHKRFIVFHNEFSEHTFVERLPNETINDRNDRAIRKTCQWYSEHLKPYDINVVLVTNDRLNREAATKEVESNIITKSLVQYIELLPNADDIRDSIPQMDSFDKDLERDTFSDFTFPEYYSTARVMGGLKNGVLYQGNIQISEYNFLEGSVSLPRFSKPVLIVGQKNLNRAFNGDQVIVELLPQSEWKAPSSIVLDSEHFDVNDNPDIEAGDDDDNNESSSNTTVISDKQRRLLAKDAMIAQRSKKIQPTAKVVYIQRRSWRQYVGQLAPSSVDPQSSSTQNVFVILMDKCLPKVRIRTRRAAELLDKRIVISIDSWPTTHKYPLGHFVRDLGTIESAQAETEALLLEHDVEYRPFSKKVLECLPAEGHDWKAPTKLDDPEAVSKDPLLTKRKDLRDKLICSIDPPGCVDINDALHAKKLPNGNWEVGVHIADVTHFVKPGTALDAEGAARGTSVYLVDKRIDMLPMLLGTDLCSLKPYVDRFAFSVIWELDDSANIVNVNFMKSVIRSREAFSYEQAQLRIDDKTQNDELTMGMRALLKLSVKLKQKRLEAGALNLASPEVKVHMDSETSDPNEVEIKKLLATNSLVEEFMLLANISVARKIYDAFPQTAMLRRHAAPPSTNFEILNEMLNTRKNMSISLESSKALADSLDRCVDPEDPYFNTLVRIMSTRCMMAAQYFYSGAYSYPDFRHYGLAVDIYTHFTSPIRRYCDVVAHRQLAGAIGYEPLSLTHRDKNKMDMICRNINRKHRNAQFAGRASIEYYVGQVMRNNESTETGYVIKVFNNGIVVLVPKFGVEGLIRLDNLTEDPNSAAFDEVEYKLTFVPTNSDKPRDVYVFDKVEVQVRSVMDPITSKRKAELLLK
Assay: fluorescence polarization

B1: polyA RNA 49 nt (ssRNA)
RNA: AAAAAAAAAAAAAAAAAAAAAAAAAAAAAAAAAAAAAAAAAAAAAAAAA
Question: Does B1 bind?
Answer: binds
